Data on 16 molecules can be found in patent US20200239573A1 (CRESCENDO BIOLOGICS, published 2020).

The target of test [1] is T1, recombinant human PD-1 Fc chimera (human, UniProt Q15116 25-167).
T1 construct: Bought protein; also called human PD-1-huFc; huPD-1-Fc; not shown: human Fc
The test is described as follows: HTRF inhibition; strep-tagged PD-L1 vs PD-1-Fc. How it is done: All samples and reagents were prepared in HTRF assay buffer containing PBS, 0.1% (w/v) BSA and 0.4M Potassium Fluoride. […] Total binding controls containing periplasmic extract sample buffer and non-specific binding controls containing excess untagged competitor were set up on each plate for data normalisation. Time-resolved fluorescent emission at 620 nm and 665 nm was measured following excitation at 337 nm on the BMG PHERAstar plate reader. Data was expressed as a % of the total binding control (% control) after subtraction of the background signal determined from the non-specific binding control wells.
On the technique in general: In TR-FRET formats the signal depends on donor and acceptor labels being close together.

Test [2] concerns the target T1, recombinant human PD-1 Fc chimera. Kind of test: HTRF inhibition; biotinylated PD-L2-Fc vs Eu-cryptate PD-1-Fc.
The target in test [3] is human PD-1 on primary human CD4+ T cells (human, UniProt Q15116 21-288). The test is described as follows: flow cytometry on PHA-stimulated human CD4+ T cells (live cell gate). How it is done:
Binding of monovalent single domain antibodies and multivalent binding agents to T cells was measured using flow cytometry. […] T-cells were stimulated with 2.5 μg/ml PHA for 2-4 days in RPMI media supplemented with 10% FBS, 2 mM Glutamine, 1× Pen/Strep. Cells were transferred into 96 well plates (75000 per well), blocked for 10 mins with PBS/1% BSA, then incubated with serially diluted VH in staining buffer (PBS/1% BSA) for 1 hour at 4° C. Cells were washed with staining buffer by centrifugation then incubated with 10 μg/ml biotinylated Anti His antibody for 40 mins at 4° C. Cells were washed again then stained with Streptavidin Alexa Fluor-488 (10 μg/ml) and 1:5000 diluted Live Dead near IR stain (Molecular Probes cat no. L10119) for 30 mins at 4° C. After further washing cells were fixed and fluorescence measured by flow cytometry.

Test [4] addresses T2, human PD-1 expressed on cells (CHO human PD-1 cells) (human, UniProt Q15116 21-288).
T2 construct: also called CHO TREX human PD-1 cell line; CHO PD-1
The test is described as follows: FMAT inhibition; 100 pM PD-L1-Fc on CHO human PD-1 cells. On the procedure:
(§1) All reagents and serially diluted VH were prepared in FMAT assay buffer. […] Plates were incubated for 2 hours at room temperature then fluorescence measured in the FL2 (502 nm-537 nm) and FL5 (677-800 nm) channels on the Mirrorball plate reader (TTP) following excitation at 488 nm and 640 nm. Data was expressed as a % of the total binding control (i.e. % control) after subtraction of the background signal determined from the non-specific binding control wells.

The target of test [5] is T2, human PD-1 expressed on cells (CHO …). Kind of test: FMAT epitope competition on CHO human PD-1 cells; competitor 1 nM 1.1-Strep. How it is done:
For the epitope competition assay reagents were prepared in FMAT assay buffer. […] Plates were incubated for a minimum of 1.5 hours at room temperature then fluorescence measured in the FL2 (502 nm-537 nm) and FL5 (677-800 nm) channels on the Mirrorball plate reader (TTP) following excitation at 488 nm and 640 nm. Data was expressed as a % of the total binding control (i.e. % control) after subtraction of the background signal determined from the non-specific binding control wells.

Test [6] has the same target. The test is described as follows: cell-based or functional assay.
Test [7] shares this target. The test is described as follows: FMAT inhibition; 200 pM PD-L2 on CHO human PD-1 cells. How it is done:
as §1

The target in test [8] is T3, Strep tagged recombinant human PD-1 (human, UniProt Q15116 25-170, limits assumed).
T3 construct: the whole entry is named; also called strep tagged human PD-1; not shown: Strep tag
Kind of test: SPR Biacore T200, strep-tagged PD-1 amine-coupled, single cycle kinetics. On the procedure:
Single cycle kinetics assays were used to study the interaction between human PD-1 with Humabody® on a Biacore T200 instrument (GE Healthcare). Strep tagged recombinant human PD-1 was amine coupled to one flow cell of a CM-5 chip to create a low density surface (14 RU) using standard Biacore reagents. For the reference flow cell, a blank immobilisation was carried out. A five-point, three-fold dilution series of each Humabody® was made with a top concentration of 25 nM. The binding kinetics were followed by flowing the Humabody® over the chip surface in HBS EP+ buffer at a flow rate of 30 μl/min. The contact time for each of the association steps was 180 seconds and the dissociation step was 3300 seconds. The data was fitted to a 1:1 binding model after double reference subtraction using the Biacore T200 Evaluation software.
(In SPR one partner is held on a chip, and binding of the other changes the refractive index at the surface.)

T3 sequence (Q15116 25-170 limits assumed): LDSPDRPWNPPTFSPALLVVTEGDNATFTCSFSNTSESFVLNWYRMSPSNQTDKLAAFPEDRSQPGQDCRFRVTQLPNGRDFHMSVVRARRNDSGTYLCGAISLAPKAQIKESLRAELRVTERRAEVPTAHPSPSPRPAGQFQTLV
T1 sequence (Q15116 25-167 limits assumed, change not shown): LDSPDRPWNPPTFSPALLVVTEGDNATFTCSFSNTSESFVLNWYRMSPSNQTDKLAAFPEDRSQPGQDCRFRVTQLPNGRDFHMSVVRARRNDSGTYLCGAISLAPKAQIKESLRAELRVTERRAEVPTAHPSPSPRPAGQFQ
T2 sequence (Q15116 21-288): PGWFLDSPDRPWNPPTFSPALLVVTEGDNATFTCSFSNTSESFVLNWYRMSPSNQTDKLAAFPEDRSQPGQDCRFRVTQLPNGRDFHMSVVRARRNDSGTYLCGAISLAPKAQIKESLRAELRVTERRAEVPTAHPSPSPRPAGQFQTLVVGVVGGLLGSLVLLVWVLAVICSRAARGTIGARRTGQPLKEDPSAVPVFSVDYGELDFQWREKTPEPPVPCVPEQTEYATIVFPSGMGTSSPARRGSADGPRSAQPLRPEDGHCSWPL
Sequence of human PD-1 on primary human CD4+ T cells (Q15116 21-288): as above

B1: Humabody® 1.2 (VHH)
VHH: EVQLLESGGGLVKPGGSLRLSCAASGFTFSDYTMTWMRQAPGKGLEWVSYISTGGSIKYYTDSVKGRFTISRDNAKNSLYLQMNSLRADDTAVYYCAREAPLRLGESPHDAFDIWGQGTMVTVSS
notes: human VH single domain antibody
As a reminder, the IC50 is the concentration that gives 50% inhibition. One may read the EC50 (read off the curve) as the concentration needed to bring the measured effect to its halfway point. Low values mean a more potent agent, high ones a less potent agent. Consider B1, for which the half-inhibitory concentration (IC50) in test [1] turned out to be 13 nM; in test [2], 39 nM. Moreover, in test [3], the concentration for a half-maximal effect (EC50 (read off the curve)) was approximately 2 nM.

B2: Humabody® 1.93 (VHH)
VHH: EVQLVESGGGLVKPGGSLRLSCAASGFTFSDASMTWMRQAPGKGLEWVSYISSGGGVKFYADSVKGRFTISRDNAKNSLYLQMNSLRAEDTAVYYCAREAPLRLGESPHDAFDISGQGTMVTVSS
notes: as for B1
With B2, the concentration for half-maximal inhibition (IC50) is 2.12 nM in test [4] and 1.5 nM in test [5].

B3: Humabody® 1.95 (VHH)
VHH: EVQLVESGGGLVKPGGSLRLSCAASGFTFSDGSMTWMRQAPGKGLEWVSYISSGGGVKFYADSVKGRFTISRDNAKNSLYLQMNSLRAEDTAVYYCAREAPLRLGESPHDAFDISGQGTMVTVSS
notes: as for B1
Regarding B3, the half-maximal inhibitory concentration (IC50) worked out at 3.59 nM in test [4] and 2 nM in test [5].

B4: Humabody® 1.62 (VHH)
VHH: QVQLVESGGGLVKPGGSLRLSCAASGFTFSDSSMTWMRQAPGKGLEWVSYISSGGAVKFYTDSVKGRFTISRDNAKNSLYLQMNSLRADDTAVYYCAREAPLRLGESPHDAFDISGQGTMVTVSS
notes: as for B1
In the case of B4, the “Reporter Assay EC50” value in test [6] came out at 14 nM. The values for the 50% inhibitory concentration (IC50) in test [7] and in test [4] were 10 nM and 5.7 nM, respectively.

B5: Humabody® 1.98 (VHH)
VHH: EVQLVESGGGLVKPGGSLRLSCAASGFTFSDKSMTWMRQAPGKGLEWVSYISSGGGVKFYADSVKGRFTISRDNAKNSLYLQMNSLRAEDTAVYYCAREAPLRLGESPHDAFDISGQGTMVTVSS
notes: as for B1
As to B5, the “Reporter Assay EC50” value in test [6] stood at 6.5 nM. For the same molecule, the IC50 in test [4] was 2.08 nM; in test [5] it was 1.1 nM.

B6: Humabody® 1.9 (VHH)
VHH: QVQLVESGGGLVKPGGSLRLSCAASGFTFGDYTMTWMRQAPGKGLEWVSYISTGGTIKYYTDSVKGRFTISRDNAKNSLYLQMDSLRADDTAVYYCAREAPLRLGESPHDAFDIWGQGTMVTVSS
notes: as for B1
Turning to B6, the IC50 in test [1] stood at 0.913 nM; in test [2] it was 7.5 nM.

B7: Humabody® 1.99 (VHH)
VHH: EVQLVESGGGLVKPGGSLRLSCAASGFTFSDRSMTWMRQAPGKGLEWVSYISSGGGVKFYADSVKGRFTISRDNAKNSLYLQMNSLRAEDTAVYYCAREAPLRLGESPHDAFDISGQGTMVTVSS
notes: as for B1
On to B7, for which the “Reporter Assay EC50” value in test [6] amounted to 4.2 nM. The 50% inhibitory concentration (IC50) was 1.86 nM in test [4] and 1.4 nM in test [5].

B8: Humabody® 1.97 (VHH)
VHH: EVQLVESGGGLVKPGGSLRLSCAASGFTFSDISMTWMRQAPGKGLEWVSYISSGGGVKFYADSVKGRFTISRDNAKNSLYLQMNSLRAEDTAVYYCAREAPLRLGESPHDAFDISGQGTMVTVSS
notes: as for B1
Turning to B8, the IC50 in test [4] came to 3.32 nM; in test [5], 1.7 nM.

B9: Humabody® 1.100 (VHH)
VHH: EVQLVESGGGLVKPGGSLRLSCAASGFTFSDLSMTWMRQAPGKGLEWVSYISSGGGVKFYADSVKGRFTISRDNAKNSLYLQMNSLRAEDTAVYYCAREAPLRLGESPHDAFDISGQGTMVTVSS
notes: as for B1
B9: the half-inhibitory concentration (IC50) worked out at 2.61 nM in test [4] and 1.5 nM in test [5].

B10: Humabody® 1.65 (VHH)
VHH: QVQLVESGGGLVKPGGSLRLSCAASGFTFSDSSMTWMRQAPGKGLEWVSYISSGGGVKFYADSVKGRFTISRDNAKNSLYLQMNSLRADDTAVYYCAREAPLRLGESPHDAFDISGQGTMVTVSS
notes: as for B1
Regarding B10, the “Reporter Assay EC50” value in test [6] came out at 11 nM. Further, the IC50 in test [7] amounted to 8.5 nM; in test [4], 5.8 nM.

B11: Humabody® 1.4 (VHH)
VHH: QVQLVESGGGLVKPGGSLRLSCAASGFTFSDYYMIWMRQAPGKGLEWVSYISGGGTTKYYTDSVKGRFTISRDNAKNSLYLQMNSLRADDTAVYYCAREAPLRLGETPHDAFDIWGQGTMVTVSS
notes: as for B1
With B11, the IC50 in test [1] came to 3.13 nM; in test [2] it was 14 nM.

B12: Humabody® 1.96 (VHH)
VHH: EVQLVESGGGLVKPGGSLRLSCAASGFTFSDTSMTWMRQAPGKGLEWVSYISSGGGVKFYADSVKGRFTISRDNAKNSLYLQMNSLRAEDTAVYYCAREAPLRLGESPHDAFDISGQGTMVTVSS
notes: as for B1
For orientation: Kd means a measure of binding affinity in units of concentration. The koff is a measure of how fast the partners let go of each other. The term kon denotes the rate constant with which the complex forms. On to B12, for which the half-inhibitory concentration (IC50) in test [4] worked out at 2.45 nM. Further, in test [8], the equilibrium dissociation constant (Kd) turned out to be 0.08 nM, the koff amounted to 0.00012 s⁻¹ and the on-rate (kon) is 1.52e+06 M⁻¹ s⁻¹. The IC50 in test [5] was 1.6 nM.

B13: Humabody® 1.91 (VHH)
VHH: EVQLVESGGGLVKPGGSLRLSCAASGFTFSDQSMTWMRQAPGKGLEWVSYISSGGGVKFYADSVKGRFTISRDNAKNSLYLQMNSLRAEDTAVYYCAREAPLRLGESPHDAFDISGQGTMVTVSS
notes: as for B1
For the molecule B13, the IC50 in test [4] was 3.56 nM; in test [5], 1.4 nM.

B14: Humabody® 1.5 (VHH)
VHH: EVQLVESGGGLVKPGGSLRLSCAASGFTFSDYTMTWMRQAPGKGLEWVSYISTGGNTKYYTDSVKGRFTISRDNAKNSLYLQMNSLRADDTAVYYCAREAPLRLGESPHDAFDIWGQGTMVTVSS
notes: as for B1
Regarding B14, the results for the 50% inhibitory concentration (IC50) in test [1] and in test [2] were 2.66 nM and 22 nM, respectively.

B15: Humabody® 1.13 (VHH)
VHH: EVQLLESGGGLVKPGGSLRLSCAASGFTFSDYTMTWMRQAPGKGLEWVSYISTGGTIKYYTDSVKGRFTISRDNAKNSLYLQMNSLRADDTAVYYCAREAPLRLGESPHDAFDIWGQGTMVTVSS
notes: as for B1
For the molecule B15, the half-maximal inhibitory concentration (IC50) stood at 17 nM in test [1] and 10 nM in test [2].

B16: Humabody® 1.63 (VHH)
VHH: EVQLVESGGGLVKPGGSLRLSCAASGFTFSDSSMTWMRQAPGKGLEWVSYISSGGGVKFYTDSVKGRFTISRDNAKNSLYLQMNSLRADDTAVYYCAREAPLRLGESPHDAFDISGQGTMVTVSS
notes: as for B1
Consider B16, for which the “Reporter Assay EC50” value in test [6] turned out to be 12 nM. Further, the IC50 in test [7] amounted to 6.9 nM; in test [4], 4.5 nM.
